Data: US20250101096A1 (SERA PROGNOSTICS, published 2025)

Key:
[1] = target: T1, human sex hormone-binding globulin (SHBG) (human, UniProt P04278 30-402, O-linked glycan at T36 (native glycosylated form)); assay: SPR (Biacore T100), mAb captured on anti-mouse IgG, SHBG antigen injected, 1:1 fit, assay 2
T1 construct: Purified human SHBG, the SHBG antigen of the SPR runs, or SHBG in human serum; also called SHBG protein
T1 sequence: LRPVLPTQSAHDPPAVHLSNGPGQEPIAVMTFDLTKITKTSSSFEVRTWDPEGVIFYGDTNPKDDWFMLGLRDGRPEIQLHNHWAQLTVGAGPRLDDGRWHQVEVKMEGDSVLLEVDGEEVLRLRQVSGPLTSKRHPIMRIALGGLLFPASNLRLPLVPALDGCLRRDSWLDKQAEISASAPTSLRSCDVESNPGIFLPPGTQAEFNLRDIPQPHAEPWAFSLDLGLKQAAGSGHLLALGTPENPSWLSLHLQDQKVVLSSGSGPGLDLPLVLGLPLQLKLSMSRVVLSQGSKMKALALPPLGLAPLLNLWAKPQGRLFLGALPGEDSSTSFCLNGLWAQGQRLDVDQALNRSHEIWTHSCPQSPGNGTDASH
Experimental: (§1) Surface plasmon resonance experiments were performed on a BiacoreT100 to characterize the anti-SHBG and anti-IBP4 antibodies. Anti-mouse-IgG antibody was amine coupled to ˜500 RU on a C1 sensor chip using standard NHS/EDC activation. Test monoclonal antibodies were captured on the anti-mouse-IgG surfaces. The binding for the Sex Hormone Binding Globulin Antigen to anti-SHBG variant antibodies 4G10.F8 and 13C9.E5 were measured in a multi-cycle kinetic mode. Binding studies were performed in PBS buffer+0.05% P20+3 mM EDTA at 25 degrees C. SHBG was captured for 1 minute at 200 nM and regenerated with 1/100 H3PO4 after each cycle. SHBG was captured to similar densities on 2 different flow cells followed by an injection of the SHBG antigen in a 3-fold titration series up to 600 nM over the two surfaces. The responses were processed by subtracting the buffer injection to correct for drift. The data sets fit well to a simple 1:1 interaction model using SCRUBBER (Biologic Software Pty Ltd). The antigen concentration series was tested three times over each surface, giving rise to the kinetic an affinity parameters summarized below.

[2] = target: T1, human sex hormone-binding globulin …; assay: SPR (Biacore T100), mAb captured on anti-mouse IgG, SHBG antigen injected, 1:1 fit, assay 3
Experimental: as §1

[3] = target: T1, human sex hormone-binding globulin …; assay: SPR (Biacore T100), mAb captured on anti-mouse IgG, SHBG antigen injected, average of 3 assays
Experimental: as §1

[4] = target: T1, human sex hormone-binding globulin …; assay: Biacore, hybridoma supernatant
[5] = target: T1, human sex hormone-binding globulin …; assay: SPR (Biacore T100), mAb captured on anti-mouse IgG, SHBG antigen injected, 1:1 fit, assay 1
Experimental: as §1

[6] = target: T1, human sex hormone-binding globulin …; assay: SPR (Biacore T100), mAb captured on anti-mouse IgG, SHBG antigen injected, 1:1 fit, assay 3; assay 3
Experimental: as §1

[7] = target: T2, C-terminal IBP4 fragment (amino acids 157-258) (human, UniProt P22692 157-258); assay: SPR (Biacore T100), mAb amine-coupled to C1 chip, CT-IBP4 injected, average
T2 construct: also called CT-IBP4; C-term IBP4
T2 sequence: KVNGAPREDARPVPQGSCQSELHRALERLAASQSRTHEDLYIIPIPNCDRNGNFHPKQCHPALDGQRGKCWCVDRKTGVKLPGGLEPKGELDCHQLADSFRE
Experimental: (§2) For this reason, anti-IBP4 antibodies were directly amine coupled using standard NHS/EDC coupling to a C1 sensor chip. Variant 5B3.G9 was coupled on two surfaces at 350 RU and the other at 150 RU. […] Antibodies were measured in a multi-cycle kinetic mode. Binding studies were performed in PBS buffer+0.05% P20+3 mM EDTA at 25 degrees C. CT-IBP4 was tested in a 3-fold concentration series up to 333 nM and injected at 100 uL/min for 3 minutes followed by a 10 minute dissociation phase. Surfaces were regenerated with 1/100 H3PO4 after each cycle. The antigen binding responses were processed by subtracting the signal from a reference surface with no antibody captured along with a buffer injection. The processed response data were globally fit to a simple 1:1 interaction using SCRUBBER (Biologic Software Pty Ltd). The antigen concentration series was tested three times over each surface, giving rise to the kinetic an affinity parameters summarized in the tables below.

[8] = target: T2, C-terminal IBP4 fragment (amino acids …); assay: SPR (Biacore T100), mAb amine-coupled to C1 chip, CT-IBP4 injected, 1:1 fit, second surface assay 1
Experimental: as §2

[9] = target: T2, C-terminal IBP4 fragment (amino acids …); assay: SPR (Biacore T100), mAb amine-coupled to C1 chip, CT-IBP4 injected, 1:1 fit, first surface assay 2
Experimental: as §2

[10] = target: T2, C-terminal IBP4 fragment (amino acids …); assay: SPR (Biacore T100), mAb amine-coupled to C1 chip, CT-IBP4 injected, 1:1 fit, second surface assay 2
Experimental: as §2

[11] = target: T2, C-terminal IBP4 fragment (amino acids …); assay: SPR (Biacore T100), mAb amine-coupled to C1 chip, CT-IBP4 injected, 1:1 fit, second surface assay 3
Experimental: as §2

[12] = target: T2, C-terminal IBP4 fragment (amino acids …); assay: SPR (Biacore T100), mAb amine-coupled to C1 chip, CT-IBP4 injected, 1:1 fit, first surface assay 3
Experimental: as §2

[13] = target: T2, C-terminal IBP4 fragment (amino acids …); assay: SPR (Biacore T100), mAb amine-coupled to C1 chip, CT-IBP4 injected, 1:1 fit, first surface assay 1
Experimental: as §2

[14] = target: T2, C-terminal IBP4 fragment (amino acids …); assay: SPR (Biacore T100), mAb amine-coupled to C1 chip, CT-IBP4 injected, 1:1 fit, assay 2
Experimental: as §2

[15] = target: T2, C-terminal IBP4 fragment (amino acids …); assay: SPR (Biacore T100), mAb amine-coupled to C1 chip, CT-IBP4 injected, 1:1 fit, assay 1
Experimental: as §2

[16] = target: T2, C-terminal IBP4 fragment (amino acids …); assay: SPR (Biacore T100), mAb amine-coupled to C1 chip, CT-IBP4 injected, 1:1 fit, assay 3
Experimental: as §2

B1: anti-SHBG antibody clone variant 4G10.F8 (antibody, mouse IgG2a, kappa)
heavy: QVQLQQPGAELVKPGASVKMSCKASGYTFTGYWMHWVKQRPGQGLEWIGVIDPSTGYTTYNEKFKGKATLTVDTSSNTAYMQLSSLTSEDSAVYYCTREPLVTADFEYWGQGTTLTVSSAKTTAPSVYPLAPVCGDTTGSSVTLGCLVKGYFPEPVTLTWNSGSLSSGVHTFPAVLQSDLYTLSSSVTVTSSTWPSQSITCNVAHPASSTKVDKKIEPRGPTIKPCPPCKCPAPNLLGGPSVFIFPPKIKDVLMISLSPIVTCVVVDVSEDDPDVQISWFVNNVEVHTAQTQTHREDYNSTLRVVSALPIQHQDWMSGKEFKCKVNNKDLPAPIERTISKPKGSVRAPQVYVLPPPEEEMTKKQVTLTCMVTDFMPEDIYVEWTNNGKTELNYKNTEPVLDSDGSYFMYSKLRVEKKNWVERNSYSCSVVHEGLHNHHTTKSFSRTPG
light: DIVMTQSQKFMSTSVGDRISVTCKASQNVDTNVAWYRQKPGQSPKALIYSASYRFSGVPDRFTGSGSGTDFTLTISTFQSEDLAEYFCQQYDSYPYTFGGGTKLEIKRADAAPTVSIFPPSSEQLTSGGASVVCFLNNFYPKDINVKWKIDGSERQNGVLNSWTDQDSKDSTYSMSSTLTLTKDEYERHNSYTCEATHKTSTSPIVKSFNRNEC
notes: Mouse monoclonal; variant form expressed from a standard backbone in CHO cells; also called SHBG (4G10.F8) Anti SHBG v1; SHBG #6
B1 showed a Kd [1] of 1.91 nM, a koff [1] of 8.37e-05 s⁻¹ and a kon [1] of 43900 M⁻¹ s⁻¹. For the same binder, the Kd [2] was 3.66 nM, the kon [2] was 39600 M⁻¹ s⁻¹ and the Kd [3] was 2 nM. For the same binder, the koff [3] was 9e-05 s⁻¹, the kon [3] was 42000 M⁻¹ s⁻¹ and the Kd [4] was 0.95 nM. For the same binder, the koff [4] was 6.2e-05 s⁻¹, the kon [4] was 65000 M⁻¹ s⁻¹ and the Kd [5] was 1.05 nM. The koff [5] was 4.57e-05 s⁻¹, the kon [5] was 43700 M⁻¹ s⁻¹ and the koff [6] was 0.000145 s⁻¹.

B2: anti-IBP4 antibody clone variant 5B3.G9 (antibody, mouse IgG1, kappa)
heavy: EVQLQQSGPELVKPGASAKISCKASGYTFTDYYMNWVKQSHGKSLEWIGDINPNNGGSAYNQKFKGKATLTVDKSSSTAYMELRSLTSEDSAVYYCARWDGGFDYWGQGTTLTVSSAKTTPPSVYPLAPGSAAQTNSMVTLGCLVKGYFPEPVTVTWNSGSLSSGVHTFPAVLQSDLYTLSSSVTVPSSTWPSQTVTCNVAHPASSTKVDKKIVPRDCGCKPCICTVPEVSSVFIFPPKPKDVLTITLTPKVTCVVVDISKDDPEVQFSWFVDDVEVHTAQTKPREEQINSTFRSVSELPIMHQDWLNGKEFKCRVNSAAFPAPIEKTISKTKGRPKAPQVYTIPPPKEQMAKDKVSLTCMITNFFPEDITVEWQWNGQPAENYKNTQPIMDTDGSYFVYSKLNVQKSNWEAGNTFTCSVLHEGLHNHHTEKSLSHSPG
light: DIVMTQSQKFMSTSVRDRVSVTCKASQNVGTNVAWYQQKPGQSPKALIYSASYRYSGVPDRFTGSGSGTAFTLTISNVQSEDLAEYFCQQYNIYPLTFGAGTKLELKRADAAPTVSIFPPSSEQLTSGGASVVCFLNNFYPKDINVKWKIDGSERQNGVLNSWTDQDSKDSTYSMSSTLTLTKDEYERHNSYTCEATHKTSTSPIVKSFNRNEC
notes: Mouse monoclonal; variant form expressed in CHO cells; also called IBP4 (5B3.G9) V1; IBP4-5B3.G9
With B2 the Kd [7] was 31 nM, the koff [7] was 0.0041 s⁻¹ and the kon [7] was 150000 M⁻¹ s⁻¹. The Kd [8] was 25.8 nM, the koff [8] was 0.00404 s⁻¹ and the kon [8] was 157000 M⁻¹ s⁻¹. It also gave a Kd [9] of 37 nM, a koff [9] of 0.00419 s⁻¹ and a kon [9] of 113000 M⁻¹ s⁻¹. For the same binder, the Kd [10] was 17.1 nM, the koff [10] was 0.0035 s⁻¹ and the kon [10] was 204000 M⁻¹ s⁻¹. For the same binder, the Kd [11] was 22.3 nM, the koff [11] was 0.00392 s⁻¹ and the kon [11] was 176000 M⁻¹ s⁻¹. It also gave a Kd [12] of 43.1 nM, a koff [12] of 0.00466 s⁻¹ and a kon [12] of 108000 M⁻¹ s⁻¹. The Kd [13] was 38.2 nM, the koff [13] was 0.00447 s⁻¹ and the kon [13] was 117000 M⁻¹ s⁻¹.

B3: anti-IBP4 antibody clone variant 7D6.G4 (antibody, mouse IgG1, kappa, V domains shown)
VH: EVQLQQSGPELVKPGASVKISCKASGYTFTDYYMNWVKQSHGKSLEWIGDINPNNGGSAYNQKFKGKATLTVDKSSSTAYMELRSLTSEDSAVYYCARWDGGFDYWGQGTTLTVSS
VL: DIVMTQSQKFMSTSVRDRVSVTCKASQNVGTNVAWYQQKPGQSPKALIYSASYRYSGVPDRFTGSGSGTDFTLTISNVQSEDLAEYFCQQYNSYPLTFGAGTKLELKR
notes: Mouse monoclonal; variant form; also called IBP4 (7D6.G4) V2; IBP4-7D6.G4
Work on B3 yielded a Kd [7] of 76 nM, a koff [7] of 0.013 s⁻¹ and a kon [7] of 180000 M⁻¹ s⁻¹. The Kd [14] was 56.1 nM, the koff [14] was 0.0119 s⁻¹ and the kon [14] was 211000 M⁻¹ s⁻¹. It also gave a Kd [15] of 96.2 nM, a koff [15] of 0.0146 s⁻¹ and a kon [15] of 152000 M⁻¹ s⁻¹. For the same binder, the Kd [16] was 75.9 nM, the koff [16] was 0.0128 s⁻¹ and the kon [16] was 168000 M⁻¹ s⁻¹.
